Measured values reported in US6699869 (MYRIAD GENETICS, dated 2004).
Non-standard residues stand in square brackets, D forms with d. No end group written: not given here. *: point of attachment. CH2Cl = ClC*

Columns and labels:
Assay in all cases: cell-based or functional assay
[1] = target: Tissue Plasminogen Activator (t-PA)
[2] = target: human urokinase (from Sigma) (human, UniProt P00749 21-431, limits assumed)
[3] = target: human Factor VIIa (FVIIa) and human tissue factor (TF) complex (human, UniProt P08709 61-466; P13726 33-251, limits assumed)
[4] = target: bovine factor Xa (from Sigma) (bovine, UniProt P00743 41-492, limits assumed)
Plasmin = target: Plasmin
[5] = target: bovine trypsin (from Sigma) (bovine, UniProt P00760 24-246)
Chain of bovine trypsin (from Sigma) (P00760 24-246): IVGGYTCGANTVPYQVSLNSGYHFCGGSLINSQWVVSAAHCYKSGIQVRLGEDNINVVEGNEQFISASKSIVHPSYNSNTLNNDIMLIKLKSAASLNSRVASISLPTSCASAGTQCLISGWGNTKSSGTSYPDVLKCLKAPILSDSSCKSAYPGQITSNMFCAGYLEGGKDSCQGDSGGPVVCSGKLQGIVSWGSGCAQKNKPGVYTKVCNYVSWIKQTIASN

Chain of bovine factor Xa (from Sigma) (P00743 41-492 limits assumed): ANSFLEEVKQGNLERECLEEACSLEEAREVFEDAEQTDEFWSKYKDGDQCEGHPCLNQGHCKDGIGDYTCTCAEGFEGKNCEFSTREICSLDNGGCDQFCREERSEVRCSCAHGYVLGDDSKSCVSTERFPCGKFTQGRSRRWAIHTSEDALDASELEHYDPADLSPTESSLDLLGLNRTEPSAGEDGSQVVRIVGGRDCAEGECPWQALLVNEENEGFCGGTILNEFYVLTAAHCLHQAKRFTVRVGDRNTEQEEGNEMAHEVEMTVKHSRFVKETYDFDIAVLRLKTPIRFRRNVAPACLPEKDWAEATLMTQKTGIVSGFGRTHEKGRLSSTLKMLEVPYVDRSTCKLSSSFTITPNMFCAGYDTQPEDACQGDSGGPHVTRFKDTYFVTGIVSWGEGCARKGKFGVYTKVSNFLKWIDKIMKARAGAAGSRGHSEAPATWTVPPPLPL

IC50 (nM), inhibition of chromogenic substrate hydrolysis by the enzyme [1]: 106 nM
IC50 (nM), inhibition of chromogenic substrate hydrolysis by the enzyme [2]: 508 nM
IC50 (nM), inhibition of chromogenic substrate hydrolysis by the enzyme [3]: 200 nM
IC50 (nM), inhibition of chromogenic substrate hydrolysis by the enzyme [4]: 165 nM
IC50 (nM), inhibition of chromogenic substrate hydrolysis by the enzyme (Plasmin): 699 nM
IC50 (nM), inhibition of chromogenic substrate hydrolysis by the enzyme [5]: 212 nM
Binder: [dF]-Pro-Arg-CH2Cl [(D)FPR-CH2Cl]
